B1: His-tagged full length PGC-1α (natural protein, UniProt O70343 1-797, looked up)
chain: MAWDMCSQDSVWSDIECAALVGEDQPLCPDLPELDLSELDVNDLDTDSFLGGLKWCSDQSEIISNQYNNEPANIFEKIDEENEANLLAVLTETLDSLPVDEDGLPSFDALTDGAVTTDNEASPSSMPDGTPPPQEAEEPSLLKKLLLAPANTQLSYNECSGLSTQNHAANHTHRIRTNPAIVKTENSWSNKAKSICQQQKPQRRPCSELLKYLTTNDDPPHTKPTENRNSSRDKCASKKKSHTQPQSQHAQAKPTTLSLPLTPESPNDPKGSPFENKTIERTLSVELSGTAGLTPPTTPPHKANQDNPFKASPKLKPSCKTVVPPPTKRARYSECSGTQGSHSTKKGPEQSELYAQLSKSSGLSRGHEERKTKRPSLRLFGDHDYCQSLNSKTDILINISQELQDSRQLDFKDASCDWQGHICSSTDSGQCYLRETLEASKQVSPCSTRKQLQDQEIRAELNKHFGHPCQAVFDDKSDKTSELRDGDFSNEQFSKLPVFINSGLAMDGLFDDSEDESDKLSYPWDGTQPYSLFDVSPSCSSFNSPCRDSVSPPKSLFSQRPQRMRSRSRSFSRHRSCSRSPYSRSRSRSPGSRSSSRSCYYYESSHYRHRTHRNSPLYVRSRSRSPYSRRPRYDSYEAYEHERLKRDEYRKEHEKRESERAKQRERQKQKAIEERRVIYVGKIRPDTTRTELRDRFEVFGEIEECTVNLRDDGDSYGFITYRYTCDAFAALENGYTLRRSNETDFELYFCGRKQFFKSNYADLDTNSDDFDPASTKSKYDSLDFDSLLKEAQRSLRR
B2: His-tagged PGC-1α (501–797) (domain or fragment, UniProt O70343 501-797, looked up)
chain: NSGLAMDGLFDDSEDESDKLSYPWDGTQPYSLFDVSPSCSSFNSPCRDSVSPPKSLFSQRPQRMRSRSRSFSRHRSCSRSPYSRSRSRSPGSRSSSRSCYYYESSHYRHRTHRNSPLYVRSRSRSPYSRRPRYDSYEAYEHERLKRDEYRKEHEKRESERAKQRERQKQKAIEERRVIYVGKIRPDTTRTELRDRFEVFGEIEECTVNLRDDGDSYGFITYRYTCDAFAALENGYTLRRSNETDFELYFCGRKQFFKSNYADLDTNSDDFDPASTKSKYDSLDFDSLLKEAQRSLRR
B3: His-tagged PGC-1α (334–797) (domain or fragment, UniProt O70343 334-797, looked up)
chain: ECSGTQGSHSTKKGPEQSELYAQLSKSSGLSRGHEERKTKRPSLRLFGDHDYCQSLNSKTDILINISQELQDSRQLDFKDASCDWQGHICSSTDSGQCYLRETLEASKQVSPCSTRKQLQDQEIRAELNKHFGHPCQAVFDDKSDKTSELRDGDFSNEQFSKLPVFINSGLAMDGLFDDSEDESDKLSYPWDGTQPYSLFDVSPSCSSFNSPCRDSVSPPKSLFSQRPQRMRSRSRSFSRHRSCSRSPYSRSRSRSPGSRSSSRSCYYYESSHYRHRTHRNSPLYVRSRSRSPYSRRPRYDSYEAYEHERLKRDEYRKEHEKRESERAKQRERQKQKAIEERRVIYVGKIRPDTTRTELRDRFEVFGEIEECTVNLRDDGDSYGFITYRYTCDAFAALENGYTLRRSNETDFELYFCGRKQFFKSNYADLDTNSDDFDPASTKSKYDSLDFDSLLKEAQRSLRR

The assay deals with Flag-tagged full length MED1 (UniProt Q15648 1-1581). Description: immobilized-template protein recruitment assay.
Sequence of Flag-tagged full length MED1 (Q15648 whole entry): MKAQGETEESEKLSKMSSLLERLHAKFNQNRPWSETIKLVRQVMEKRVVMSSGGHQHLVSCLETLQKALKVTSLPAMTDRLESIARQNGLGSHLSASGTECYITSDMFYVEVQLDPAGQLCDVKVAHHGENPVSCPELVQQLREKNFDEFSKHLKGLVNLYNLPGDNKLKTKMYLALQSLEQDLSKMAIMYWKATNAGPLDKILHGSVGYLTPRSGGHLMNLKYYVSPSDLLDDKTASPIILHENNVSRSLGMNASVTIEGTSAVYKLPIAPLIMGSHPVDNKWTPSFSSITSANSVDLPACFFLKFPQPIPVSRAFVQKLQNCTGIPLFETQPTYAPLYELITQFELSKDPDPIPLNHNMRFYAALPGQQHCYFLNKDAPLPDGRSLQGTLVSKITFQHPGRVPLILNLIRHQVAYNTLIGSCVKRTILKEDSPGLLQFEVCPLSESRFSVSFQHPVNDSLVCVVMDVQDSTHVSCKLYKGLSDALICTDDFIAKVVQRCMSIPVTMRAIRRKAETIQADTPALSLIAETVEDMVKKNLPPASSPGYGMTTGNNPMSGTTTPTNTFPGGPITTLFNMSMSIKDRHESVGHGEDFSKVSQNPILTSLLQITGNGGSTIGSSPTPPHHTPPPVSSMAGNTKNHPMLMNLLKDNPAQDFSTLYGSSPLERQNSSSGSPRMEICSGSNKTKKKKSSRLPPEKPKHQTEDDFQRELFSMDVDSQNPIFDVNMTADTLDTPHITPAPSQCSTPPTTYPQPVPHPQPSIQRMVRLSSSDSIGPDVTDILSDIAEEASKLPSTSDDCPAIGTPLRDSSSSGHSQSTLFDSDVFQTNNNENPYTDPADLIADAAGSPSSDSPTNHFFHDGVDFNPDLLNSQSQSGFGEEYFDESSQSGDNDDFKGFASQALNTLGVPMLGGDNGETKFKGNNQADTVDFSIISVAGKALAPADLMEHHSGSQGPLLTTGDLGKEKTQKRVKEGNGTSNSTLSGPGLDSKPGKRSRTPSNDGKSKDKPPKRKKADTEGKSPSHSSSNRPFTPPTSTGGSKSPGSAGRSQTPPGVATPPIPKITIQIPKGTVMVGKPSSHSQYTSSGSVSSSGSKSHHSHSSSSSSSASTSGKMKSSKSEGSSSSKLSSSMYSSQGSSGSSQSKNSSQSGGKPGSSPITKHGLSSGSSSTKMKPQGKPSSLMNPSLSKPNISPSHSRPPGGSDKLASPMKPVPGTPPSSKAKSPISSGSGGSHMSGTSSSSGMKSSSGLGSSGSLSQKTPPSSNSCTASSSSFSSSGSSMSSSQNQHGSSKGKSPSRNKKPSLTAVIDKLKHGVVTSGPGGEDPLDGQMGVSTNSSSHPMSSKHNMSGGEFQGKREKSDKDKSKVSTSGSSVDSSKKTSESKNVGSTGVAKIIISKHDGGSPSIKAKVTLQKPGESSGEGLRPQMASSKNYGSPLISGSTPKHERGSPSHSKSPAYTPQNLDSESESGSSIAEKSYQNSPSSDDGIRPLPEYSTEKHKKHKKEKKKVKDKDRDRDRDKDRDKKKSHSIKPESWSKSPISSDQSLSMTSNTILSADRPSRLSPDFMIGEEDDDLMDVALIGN
Regarding B1, the binding result is “binds”. As to B2, the binding result is reported as “binds”. Under B3 stands “binds”.

Values taken from paper PMC3217464 (Molecular cell, 2009).
